# Measurements taken from patent US11162124B2, “Alcohol dehydrogenase mutant and application thereof in cofactor regeneration” (Jiangnan University, priority 2018, dated 2021).
# Positions count from the first letter of the chain named. In names and notes the source's numbering stands.
# T1: alcohol dehydrogenase KpADH mutant M3 (Y127M; parent SEQ ID No. 1) (Vanderwaltozyma polyspora, UniProt A7TM80, Y127M)
# T1 sequence (A7TM80 1-342 Y127M): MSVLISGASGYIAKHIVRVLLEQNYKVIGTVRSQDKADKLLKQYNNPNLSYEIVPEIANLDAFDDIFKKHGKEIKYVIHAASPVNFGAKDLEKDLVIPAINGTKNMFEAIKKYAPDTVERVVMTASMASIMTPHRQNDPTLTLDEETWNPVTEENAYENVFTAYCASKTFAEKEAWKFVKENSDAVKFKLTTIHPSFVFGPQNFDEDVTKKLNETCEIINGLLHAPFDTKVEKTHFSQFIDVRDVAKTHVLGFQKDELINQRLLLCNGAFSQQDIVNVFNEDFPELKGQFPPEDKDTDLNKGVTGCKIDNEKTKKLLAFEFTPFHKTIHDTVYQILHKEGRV
# T2: alcohol dehydrogenase KpADH mutant M5 (V84I/Y127M; parent SEQ ID No. 1) (Vanderwaltozyma polyspora, UniProt A7TM80, V84I/Y127M)
# T2 sequence (A7TM80 1-342 V84I/Y127M): T1 sequence (A7TM80 1-342 Y127M) with V84I
# B1: alcohol dehydrogenase KpADH, wild type, SEQ ID No. 1 (Vanderwaltozyma polyspora DSM 70294) (protein)
# chain: T1 sequence (A7TM80 1-342 Y127M) with M127Y
# B2: alcohol dehydrogenase KpADH mutant M4 (V84I/Y127C; parent SEQ ID No. 1) (Vanderwaltozyma polyspora DSM 70294; V84I/Y127C) (protein)
# chain: T1 sequence (A7TM80 1-342 Y127M) with V84I, M127C
# B3: alcohol dehydrogenase KpADH mutant M2 (Y127C; parent SEQ ID No. 1) (Vanderwaltozyma polyspora DSM 70294; Y127C) (protein)
# chain: T1 sequence (A7TM80 1-342 Y127M) with M127C
# B4: alcohol dehydrogenase KpADH mutant M3 (Y127M; parent SEQ ID No. 1) (Vanderwaltozyma polyspora DSM 70294; Y127M) (protein)
# chain: T1 sequence (A7TM80 1-342 Y127M)
# B5: alcohol dehydrogenase KpADH mutant M5 (V84I/Y127M; parent SEQ ID No. 1) (Vanderwaltozyma polyspora DSM 70294; V84I/Y127M) (protein)
# chain: T1 sequence (A7TM80 1-342 Y127M) with V84I
# B6: alcohol dehydrogenase KpADH mutant M1 (V84I; parent SEQ ID No. 1) (Vanderwaltozyma polyspora DSM 70294; V84I) (protein)
# chain: T1 sequence (A7TM80 1-342 Y127M) with V84I, M127Y
# Columns and labels:
# [1] = target: alcohol dehydrogenase KpADH, wild type, SEQ ID No. 1 (Vanderwaltozyma polyspora, UniProt A7TM80); assay: Kinetic analysis of wild-type KpADH toward diol co-substrates; assay type: biochemical; conditions: 1 mM NADP+, Gly-NaOH pH 9.5, 30° C.
# Description: (§1) Changes in absorbance at 340 nm are measured.
# (§2) The enzyme activity is calculated using the following formula: Enzyme activity (U)=EW×V×10^3/(6220×I);
# (§3) In the formula, EW is the change in absorbance at 340 nm in 1 min; V is the volume of the reaction solution in mL; 6220 is the molar extinction coefficient of NAD(P)H in L/(mol·cm); I is optical distance in cm.
# One unit of activity (U) corresponds to the amount of enzyme required for the catalytic oxidation of 1 μmol NADP^+ per minute under the above conditions. […]
# (§4) The Vmax and Km values can be calculated from the intercepts of the double reciprocal plot on the X and Y axes;
# (§5) The kcat value can be further calculated according to the formula.
# (§6) The activity of KpADH under different substrate concentrations and cofactor concentrations was measured, and a double reciprocal plot was made according to the reciprocals of the activity and substrate concentration. The kinetic parameters were calculated.
# (§7) The activity of KpADH under different substrate concentrations and cofactor concentrations was measured, and a double reciprocal plots were made according to the reciprocals of the activity and substrate concentration. The kinetic parameters were calculated.
# [2] = target: T1, alcohol dehydrogenase KpADH mutant M3 (Y127M; parent SEQ ID No. 1); assay: Kinetic analysis of KpADH mutant M3 toward diol co-substrates; assay type: biochemical; conditions: mutant M3 relative to wild-type KpADH
# Description: (§8) M3 is obtained by mutating tyrosine at position 127 into methionine in alcohol dehydrogenase having an original amino acid sequence as set forth in SEQ ID No. 1;
# as §1, §2, §3
# (§9) One unit of activity (U) corresponds to the amount of enzyme required for the catalytic oxidation of 1 μmol NADP^+ per minute under the above conditions.
# (§10) Kinetic measurement is conducted according to the enzyme activity assay, with 10 μL of alcohol substrates of different concentrations, 1 mM NADP^+, 10 μL of enzymes of appropriate concentrations, 170 μL of glycine-sodium hydroxide buffer at pH 9.5, with each sample in triplicate. […] The calculation formulas are as follows: […]
# as §4, §5, §6, §7
# [3] = target: T2, alcohol dehydrogenase KpADH mutant M5 (V84I/Y127M; parent SEQ ID No. 1); assay: Kinetic analysis of KpADH mutant M5 toward diol co-substrates; assay type: biochemical; conditions: mutant M5 relative to wild-type KpADH
# Description: (§11) the M5 is obtained by mutating valine at position 84 into isoleucine and tyrosine at position 127 into methionine in alcohol dehydrogenase having an original amino acid sequence as set forth in SEQ ID No. 1.
# as §1, §2, §3, §9, §10, §4, §5, §6, §7
# [4] = substrate: OCCCCO; assay: purified protein, by the assay type; conditions: other: wild-type KpADH, 1 mM NADP+, Gly-NaOH pH 9.5, 30° C.
# [5] = substrate: OCCCCCO; assay: Kinetic analysis of wild-type KpADH toward diol co-substrates; assay type: biochemical; conditions: other: wild-type KpADH, 1 mM NADP+, Gly-NaOH pH 9.5, 30° C.
# Description: as §1, §2, §3, §9, §10, §4, §5, §6, §7
# [6] = substrate: OCCCCCCO; assay: Kinetic analysis of KpADH mutant M4 toward diol co-substrates; assay type: biochemical; conditions: other: mutant M4, 1 mM NADP+, Gly-NaOH pH 9.5, 30° C.
# Description: (§12) M4 is obtained by mutating valine at position 84 into isoleucine and tyrosine at position 127 into cysteine in alcohol dehydrogenase having an original amino acid sequence as set forth in SEQ ID No. 1;
# as §1, §2, §3, §9, §10, §4, §5, §6, §7
# [7] = substrate: OCCCCCO; assay: as above; assay type: biochemical; conditions: other: mutant M4, 1 mM NADP+, Gly-NaOH pH 9.5, 30° C.
# Description: as §12, §1, §2, §3, §9, §10, §4, §5, §6, §7
# [8] = substrate: OCCCCCCO; assay: Kinetic analysis of KpADH mutant M2 toward diol co-substrates; assay type: biochemical; conditions: other: mutant M2, 1 mM NADP+, Gly-NaOH pH 9.5, 30° C.
# Description: (§13) M2 is obtained by mutating tyrosine at position 127 into cysteine in alcohol dehydrogenase having an original amino acid sequence as set forth in SEQ ID No. 1;
# as §1, §2, §3, §9, §10, §4, §5, §6, §7
# [9] = substrate: OCCCCCO; assay: as above; assay type: biochemical; conditions: other: mutant M2, 1 mM NADP+, Gly-NaOH pH 9.5, 30° C.
# Description: as §13, §1, §2, §3, §9, §10, §4, §5, §6, §7
# [10] = substrate: OCCCCCCO; assay: Kinetic analysis of KpADH mutant M3 toward diol co-substrates; assay type: biochemical; conditions: other: mutant M3, 1 mM NADP+, Gly-NaOH pH 9.5, 30° C.
# Description: as §8, §1, §2, §3, §9, §10, §4, §5, §6, §7
# [11] = substrate: OCCCCCO; assay: as above; assay type: biochemical; conditions: other: mutant M3, 1 mM NADP+, Gly-NaOH pH 9.5, 30° C.
# Description: as §8, §1, §2, §3, §9, §10, §4, §5, §6, §7
# [12] = substrate: OCCCCCCO; assay: Kinetic analysis of KpADH mutant M5 toward diol co-substrates; assay type: biochemical; conditions: other: mutant M5, 1 mM NADP+, Gly-NaOH pH 9.5, 30° C.
# Description: as §11, §1, §2, §3, §9, §10, §4, §5, §6, §7
# [13] = substrate: OCCCCCO; assay: as above; assay type: biochemical; conditions: other: mutant M5, 1 mM NADP+, Gly-NaOH pH 9.5, 30° C.
# Description: as §11, §1, §2, §3, §9, §10, §4, §5, §6, §7
# [14] = substrate: OCCCCCCO; assay: Kinetic analysis of KpADH mutant M1 toward diol co-substrates; assay type: biochemical; conditions: other: mutant M1, 1 mM NADP+, Gly-NaOH pH 9.5, 30° C.
# Description: (§14) M1 is obtained by mutating valine at position 84 into isoleucine in alcohol dehydrogenase having an original amino acid sequence as set forth in SEQ ID No. 1;
# as §1, §2, §3, §9, §10, §4, §5, §6, §7
# [15] = substrate: OCCCCCO; assay: as above; assay type: biochemical; conditions: other: mutant M1, 1 mM NADP+, Gly-NaOH pH 9.5, 30° C.
# Description: as §14, §1, §2, §3, §9, §10, §4, §5, §6, §7
molecule,measurement,setting,value
"OCCCCCCO [1,6-hexanediol]",Km,[1],18.5 ± 1.5 mM
same,kcat,[1],0.698 ± 0.015 s⁻¹
same,"catalytic efficiency kcat/Km, times that of wild-type KpADH",[2],2.69 times
same,"kcat/Km value, times that of wild-type KpADH",[3],5.3 times
B1,Km,[4],75.6 ± 0.4 mM
same,kcat,[4],0.173 s⁻¹
same,kcat/Km,[4],2.28 M⁻¹ s⁻¹
same,Km,[5],74.4 ± 2.2 mM
same,kcat,[5],0.928 ± 0.0167 s⁻¹
same,kcat/Km,[5],12.5 M⁻¹ s⁻¹
B2,Km,[6],12.9 ± 1.3 mM
same,kcat,[6],1.64 ± 0.0417 s⁻¹
same,kcat/Km,[6],127.2 M⁻¹ s⁻¹
same,Km,[7],16.3 ± 0.8 mM
same,kcat,[7],0.413 ± 0.0183 s⁻¹
same,kcat/Km,[7],25.35 M⁻¹ s⁻¹
B3,Km,[8],31.8 ± 1.7 mM
same,kcat,[8],0.603 ± 0.0367 s⁻¹
same,kcat/Km,[8],18.97 M⁻¹ s⁻¹
same,Km,[9],63.5 ± 0.1 mM
same,kcat,[9],0.418 ± 0.015 s⁻¹
same,kcat/Km,[9],6.6 M⁻¹ s⁻¹
B4,Km,[10],6.48 ± 0.45 mM
same,kcat,[10],0.658 ± 0.0317 s⁻¹
same,kcat/Km,[10],101.6 M⁻¹ s⁻¹
same,Km,[11],14.3 ± 0.9 mM
same,kcat,[11],0.777 ± 0.0283 s⁻¹
same,kcat/Km,[11],54.48 M⁻¹ s⁻¹
B5,Km,[12],6.52 ± 1.0 mM
same,kcat,[12],1.25 ± 0.035 s⁻¹
same,kcat/Km,[12],200.53 M⁻¹ s⁻¹
same,Km,[13],8.21 ± 0.22 mM
same,kcat,[13],0.322 ± 0.015 s⁻¹
same,kcat/Km,[13],39.22 M⁻¹ s⁻¹
B6,Km,[14],12.3 ± 0.7 mM
same,kcat,[14],1.08 ± 0.0283 s⁻¹
same,kcat/Km,[14],87.53 M⁻¹ s⁻¹
same,Km,[15],42.5 ± 1.5 mM
same,kcat,[15],0.852 ± 0.013 s⁻¹
same,kcat/Km,[15],20.03 M⁻¹ s⁻¹
